Assay [1] concerns hT40, dGA, dGAE and truncated tau fragments. Kind of assay: Binding ELISA / epitope mapping of anti-tau scAbs with truncated tau proteins and 13mer peptides. Set-up: species or system human. The settings on record: for Tau proteins/fragments with positive scAb reactivity: binding ELISA; for Shortest region bound on hT40: incl. 13mer peptides; for Binding regions on hT40: Table 33, core binding scAbs tested in epitope occlusion assays; for Short epitope on hT40: Table 18, '3a' & '3b' series scAbs; for Epitope: residue numbers of SEQ ID NO: 1 (hT40), CDR Tables 1-11. As to the method: A series of binding ELISA was performed using various truncated versions of the tau protein and 13mer peptide libraries spanning the entire hT40 molecule for mapping the epitopes of anti-tau scAbs (Full list of protein antigens used is given in Table 14). In general, ELISA plates were coated with 1 μg/ml hT40 or dGA or dGAE or other truncated versions of the protein and in the case of biotinylated peptides, plates were coated with 5 μg/ml Streptavidin followed by 1 μg/ml biotinylated peptide. The plates were blocked with 2% MPBS and scAb samples added at desired starting concentrations and double diluted across the plate. Binding was detected using anti-Human C Kappa HRP conjugated secondary antibody and the resulting immunoreaction was developed and absorbance values measured as described above.
Selected E specific scAbs and their specific binding to dGAE is shown below (FIG. 8A-E).
Similarly, dGA binding ‘NS’, ‘S’ and ‘M’ group scAbs were subjected to further antigen binding ELISA using shorter tau proteins and biotinylated 13mer peptides as shown below (FIG. 10A-F) and (FIG. 11A-R).
In general terms: In an ELISA, binding on a coated surface is turned into a signal by an enzyme label.

The target in assay [2] is T1, hT40 (T441, SEQ ID NO: 1) (Homo sapiens, UniProt P10636).
T1 construct: Full length tau (hT40)
Kind of assay: Biacore X100 SPR kinetics of scAbs for hT40. Format: binding. The settings on record: Table 25; '3a' and '3b' scAbs, hT40. As to the method:
Surface plasmon resonance (SPR) is widely regarded as the gold standard for real time measurement of protein-protein interactions such as antibody binding. All SPR experiments were carried out using a Biacore X100 machine and HBS EP+ running buffer (GE Healthcare). A ‘capture’ method was followed for affinity measurements, where an anti-human constant kappa chain (HuCk) antibody was conjugated to the surface of a CM5 sensor chip using an amine coupling kit and scAb molecules were immobilised via their HuCk domain. Amine coupling is a very common approach for immobilising the ligand to the chip surface. […] The capture antibody was diluted 1/100 in 10 mM Sodium acetate buffer pH 5.0 and passed over the activated chip surface for a period of at least 420 s. Final ligand immobilisation levels over 12,000 RU were deemed to be satisfactory.
Following immobilisation, the level of each scAb to be captured was identified using the standard SPR equation with a theoretical RMax of 100 RU. Analyte MW refers to the molecular weight of hT40 or dGA/dGAE molecules, while ligand MW refers to the molecular weight of the scAbs tested. RL is the desired capture level and S refers to the stoichiometric ratio:
The scAb to be tested was added only to flow cell 2 so that flow cell 1 could act as a control to subtract any interaction with the analyte and the chip surface. Both single and multi-cycle runs were utilised using wizards developed in the Biacore X100 control software which are both accepted methods of kinetic analysis (Karlsson, R., et al. Analyzing a kinetic titration series using affinity biosensors (2006) Analytical Biochemistry 349:136-47). The multi-cycle protocol was as follows-Three start-up cycles composed of an initial capture, to the desired level, of the scAb to be tested was performed followed by a 30 s injection of glycine buffer pH 2.0 after each cycle to regenerate the chip surface. […] Following three start-up cycles increasing concentrations (0.15625 nM-100 nM) of the target to be tested were added to the chip surface after the desired scAb capture. The target was added for a 120 s association period and 420 s dissociation period followed by another regeneration, 30 s injection of glycine buffer pH 2.0 in between each cycle.
The single cycle kinetics protocol was similar and utilised the same level of scAb capture. Three start-up cycles were used followed by 5 increasing concentrations of the analyte (6.25 nM-100 nM) for an association period of 120 s followed by a dissociation period of 420 s for each concentration. In single cycle kinetics the regeneration step was performed only after the final analyte concentration was added. Binding responses were analysed in Biacore X100 evaluation software and data fitted to a 1:1 binding model to obtain kinetic and affinity characterisation.
A general note: In SPR one partner is held on a chip, and binding of the other changes the refractive index at the surface.

Substitutions are numbered along the chain they refer to.

T1 sequence (P10636 1-441 isoform P10636-8): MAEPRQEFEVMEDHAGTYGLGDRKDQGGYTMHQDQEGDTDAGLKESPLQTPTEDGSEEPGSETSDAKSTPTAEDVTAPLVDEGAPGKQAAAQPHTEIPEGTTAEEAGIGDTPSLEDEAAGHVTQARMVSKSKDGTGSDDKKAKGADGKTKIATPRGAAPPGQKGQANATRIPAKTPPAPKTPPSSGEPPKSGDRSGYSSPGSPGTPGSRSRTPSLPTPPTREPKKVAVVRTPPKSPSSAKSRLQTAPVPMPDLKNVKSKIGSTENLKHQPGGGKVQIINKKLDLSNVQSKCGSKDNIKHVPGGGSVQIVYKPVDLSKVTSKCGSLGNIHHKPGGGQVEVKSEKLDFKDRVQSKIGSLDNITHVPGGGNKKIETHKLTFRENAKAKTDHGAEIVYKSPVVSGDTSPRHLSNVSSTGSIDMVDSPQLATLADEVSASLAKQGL

B1: CA12: anti-tau clone, Tables 2 and 10; SEQ ID NO: 372 (protein)
chain: QVQLQGSGPSLVKPSQTLSLTCTVSGFSFDSYYVGWVRQAPGKALEWLGNIYSTGRAFYNPALKSRLSITRDTSKSQVSLSVSSVTIEDTALYYCVRGSYYHGGGNGMVDFFDYWSPGLLVTVSSEGKSSGASGESKVDDQVVRTQPSSVSGSLGQRVSITCSGSSSNVGYGNYVGWFQQVPGSAPKLLIYAATSRASGVPDRFSGSRSGNTATLTIDSLQAEDEADYYCSSYQRGNTGVFGSGTRLTVLG
modifications: CA12 amino acid sequence
With B1, in assay [1] (Table 17, 'C' group scAbs), the “Tau proteins/fragments with positive scAb reactivity” value (shortened to “Tau proteins/fragments”) is “hT40, 297-390 (dGA)” and the “Shortest region bound on hT40” value was 367-379.

B2: C-E3 (protein)
CDR 1: SNAVG
CDR 2: GCSSDGKCYYNSALKS
CDR 3: GYYPVYGYDYLGTIDY
CDR 4: SGSSSNVGRNDVA
CDR 5: GTTSRPS
CDR 6: ASGDSSAINDI
modifications: VHCDR1 ME12, NS3D9; VHCDR1 S1D2, S1H6, S2C3; VHCDR1 MC5, MD12; VHCDR1 3aA6, VHCDR1 CE3; VHCDR2 NS3D9, CE3; VHCDR3 NS3D9, CE3; VLCDR1 NS3D9, CE3; VLCDR2 NS3D9, CE3; VLCDR3 NS3D9, CE3
For the molecule B2, the “Binding regions on hT40” value in assay [1] is reported as 297-356.

B3: 3aD3: N-terminal anti-tau clone, Table 6; SEQ ID NO: 422 (protein)
chain: QVQLQESGPSLVKPSQTLSLTCTVSGFSLTSNGVGWVRRAPGKVPEWVGDISSGGKVYGHPALKSRLSITRDTSKSQVSLSVSSVTSEDTAVYYCVRCRDGGVSYGYDSDYWGPGLLVTVSSEGKSSGASGESKVDDQAVVTQPSSVSKSLGQSVSITCSGSSSNVGYGDYVGWFQQVPGSAPKLLIYGVTERASGVPDRFSGSRSGNTATLTISSIQAEDEADYYCASYDDSSGGIFGSGTRLTVLG
modifications: 3aD3 amino acid sequence
Consider B3, for which, in assay [2], the “ka” value came to 544400 M⁻¹ s⁻¹ and the “kd” value came out at 0.01038 s⁻¹. For the same molecule, in assay [1], the “Short epitope on hT40” value was 1-49 and the Epitope was 1-49.

B4: 3bF4: anti-tau clone, Table 7; SEQ ID NO: 421 (protein)
chain: QVQLQESGPSLVKPSQTLSLTCTVSGFSLSSNGVGWVRQAPGKVPEWLGDISSVGKKYANPALKSRLSFTRDTSKSQVSLSLSSVTTEDTAVYYCVKCRDGGVTYGYDIDYWGPGLLVTVSSEGKSSGASGESKVDDQAVLTQPSSVSKSTGQTVSITCSGSSSNVGLRNYVTWFQQVPGSAPKLLIYGATSRASGIPDRFSGSRSGNTATLIISSLQAEDEADYYCASADTNDGGVFGSGTRLTVLG
modifications: 3bF4 amino acid sequence
With B4, in assay [2], the “ka” value is 109300 M⁻¹ s⁻¹ and the “kd” value turned out to be 0.01532 s⁻¹. Further, in assay [1], the “Short epitope on hT40” value is given as 49-111 and the Epitope is on record as 49-111.

B5: C-B3 (protein)
scFv: QVQLQESGPSLVKPSQTLSLTCTVSGFSLSSVAVNWVRQAPGKVPEWLGGIISNGGTGYNPALKSRLSITRDTSKSQVSLALTHVTTEDTAVYYCGRGVEWEGSMDYLGPGLLVTVSSEGKSSGSGSETKVDDQSVLTQPSSVSGFLGQRVTITCSGSSSNVGAGSYVGWYQQVPGSGLRILIYGATKRASGLPDRFSGSRSGNTATLTISSLQAEDEADYYCVSYQTDFTLVFGSGTRLTVLG
modifications: left off: small tags and cut ends
B5: in assay [1], the “Binding regions on hT40” value is listed as 360-390.

B6: 3aB7: anti-tau clone, Table 7; SEQ ID NO: 420 (protein)
chain: QVQLQESGPSLVKPSQTLSLTCTVSGFSLTSNGVGWVRQAPGKVPEWVGDKSSAGKTYGNPALKSRLSITRDTSKSQVSLSLSSVTTEDTAVYYCVRCRDGGVTYGYDVDYWGPGLLVTVSSEGKSSGASGESKVDDQAVLTQPSSVSKSLGQSVSITCSGSSSNVGYGDVVSWFQQFPGSAPKLLIFGTTTRASGVPDRFSGSRSGNAATLTINSLQAEDEADYYCASFDSDSGGIAGSGTRLTVLG
modifications: 3aB7 amino acid sequence
On to B6, for which, in assay [2], the “ka” value came to 207200 M⁻¹ s⁻¹ and the “kd” value turned out to be 0.01435 s⁻¹. Moreover, in assay [1], the “Short epitope on hT40” value is 49-111 and the Epitope is 49-111.

B7: 3aA6: anti-tau clone, Table 8; SEQ ID NO: 418 (protein)
chain: QVRLQESGSSLVKPSQTLSLVCTVSGFPLTSNAVGWVRQAPGKAPEWLGLIDIDGDTAYNPALESRLSITRDTSKSQVSLSLSSVAIEDTAVYYCARHYDKWGYADSIDYWGPGLLVTVSSEGKSSGASGESKVDDQALLTQPSSVFGSLGQRVSITCSGSSSNVGYGDYVGWYQQVPGSAPKLLIYDATTRASGVPDRFSGSRSGNTATLTISSLQAEDEADYYCASYQNERSGVFGSGTRLTVLG
modifications: 3aA6 amino acid sequence
On to B7, for which, in assay [2], the “ka” value amounted to 19000 M⁻¹ s⁻¹ and the “kd” value stood at 0.0188 s⁻¹. Further, in assay [1], the “Short epitope on hT40” value is on record as 147-157 and the Epitope was 147-157.

B8: S1G10: anti-tau clone, Table 2; SEQ ID NO: 415 (protein)
scFv: QVQLQESGPSLVKPSQTLSLTCTVSGFSLTSNSVGWVRQAPGKAPEWVAGIDTDGEEGYNPALNSRLSITRDTSKSQVSLSLSSVTSEDTAVYYCGRSYRADGLAYGYVQAIDYWGPGLLVTVSSEGKSSGASGESKVDDQAVLTQPSSMSGSLGQRVSITCSGSFIGISSVGWFQQLPGSGLRTIIVASDGRPSGVPDRFSMSKSGNTATLTISSLQAEDEADYFCGSSDRTQYTGVFGSGTRLTVLG
modifications: S1G10 amino acid sequence
Turning to B8, in assay [1] (Table 16, NS, S and M clones), the “Tau proteins/fragments” value is “hT40, 297-390 (dGA), 297-391 (dGAE), 369-390, 369-391” and the “Shortest region bound on hT40” value is reported as 367-379. Besides, the “Detection scAb (Epitope)” value in assay [1] (Table 28 (LoD table), residues of hT40) is reported as “S1G10 (367-379)”.

B9: C-A9 (protein)
scFv: B8 scFv with A101S, S148A, M150V
modifications: left off: small tags and cut ends
On to B9, for which the “Binding regions on hT40” value in assay [1] is recorded as 367-379.

B10: S-1D12 (protein)
CDR 1: NNAVG
CDR 2: GCSSDGTCYYNSALKS
CDR 3: GHYSIYGYDYLGTIDY
CDR 4: SGSSSNVGGGNSVG
CDR 5: DTNSRPS
CDR 6: VTGDSTTHDDL
modifications: VHCDR1 S1D12, S2C1; VHCDR2 S1D12, S2C1; VHCDR3 S1D12; VLCDR1 S1D12, ME12; VLCDR2 S1D12; VLCDR3 S1D12
On to B10, for which, in assay [1], the “Binding regions on hT40” value is given as 337-355.

B11: CB2: anti-tau clone, Tables 2 and 10; SEQ ID NO: 369 (protein)
scFv: QVQLQESGPSLVKPSQTLSLTCTVSGFSLSTNSVGWVRQAPGKAPEWVAGIDTDGEEGFNPVLKSRLSITRDTSKSQVSLSLSNVTSEDTAVYYCGRSYRTDGLAYGYVQAIDYWGPGLLVTISSEGKSSGASGESKVDDQSVLTQPSSVSGSPGQTVSITCSGSYIGSSGVGWFQQLPGSGLRTIIVASDGRPSGVPDRFSMSKSGNTATLTISSLQAEDEADYFCGSSDRTQYTGLFGSGTRLTVLG
modifications: CB2 amino acid sequence
In the case of B11, in assay [1] (Table 17, 'C' group scAbs), the “Tau proteins/fragments” value is “hT40, 348-441” and the “Shortest region bound on hT40” value is reported as 359-391.
